Experimental data taken from paper PMC11005723, “Development of Complementary Photo‐arginine/lysine to Promote Discovery of Arg/Lys hPTMs Interactomes” (Advanced Science, 2024).

Target: His‐DPF2PHD (residues 270–391) (UniProt Q92785)
Assay: ITC; 25 °C, MicroCal PEAQ-ITC; protein in the cell titrated with 19 injections of peptide

His‐DPF2PHD (residues 270–391), sequence (Q92785 270-391): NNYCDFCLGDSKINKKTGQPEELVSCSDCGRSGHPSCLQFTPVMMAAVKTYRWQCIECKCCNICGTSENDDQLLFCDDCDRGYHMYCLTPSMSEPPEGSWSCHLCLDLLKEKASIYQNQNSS

A Kd of 3.5 µM was found for “native H3R2 peptide (H3_(1‐15) without diazirine and biotin)” in this work.
